Measured values: patent publication US20240018247A1 (MUSC FOUNDATION FOR RESEARCH DEVELOPMENT, published 2024)

What was measured:
human P-selectin = biological target: T1, human P-selectin (human, UniProt P16109 42-771, limits assumed); assay: ELISA binding assay on human P-selectin, OD 450
T1 construct: also called human P-selectin antigen
T1 sequence (looked up): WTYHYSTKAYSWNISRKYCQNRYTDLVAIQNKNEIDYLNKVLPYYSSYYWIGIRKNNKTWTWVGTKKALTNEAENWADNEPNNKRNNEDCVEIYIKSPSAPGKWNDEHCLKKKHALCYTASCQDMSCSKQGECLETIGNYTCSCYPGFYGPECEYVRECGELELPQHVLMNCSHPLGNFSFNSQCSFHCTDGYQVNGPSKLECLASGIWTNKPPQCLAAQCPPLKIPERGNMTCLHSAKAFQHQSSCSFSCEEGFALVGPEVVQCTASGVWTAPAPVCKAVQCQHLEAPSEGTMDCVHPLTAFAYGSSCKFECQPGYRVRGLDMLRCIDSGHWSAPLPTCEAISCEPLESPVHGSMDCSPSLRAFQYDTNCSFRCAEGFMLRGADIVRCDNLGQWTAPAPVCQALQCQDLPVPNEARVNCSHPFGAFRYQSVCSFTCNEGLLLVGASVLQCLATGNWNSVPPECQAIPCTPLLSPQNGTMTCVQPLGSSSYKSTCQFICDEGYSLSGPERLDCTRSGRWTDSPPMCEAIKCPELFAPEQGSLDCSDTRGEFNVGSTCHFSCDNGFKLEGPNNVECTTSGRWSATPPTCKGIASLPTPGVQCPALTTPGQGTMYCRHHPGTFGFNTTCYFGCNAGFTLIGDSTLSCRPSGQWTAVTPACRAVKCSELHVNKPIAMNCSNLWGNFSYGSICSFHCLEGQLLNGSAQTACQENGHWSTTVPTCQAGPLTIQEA
Description: To evaluate the ability of B.PselscFv-Crry and NB.PselscFv-Crry to inhibit complement activation, a zymosan A bead assay was performed. Briefly, flow cytometric analysis of C3 deposition on zymosan A particles (SigmaAldrich) was performed and the extent of complement inhibition was normalized by the subtraction of post-IRI complement deposition levels from their baseline levels. Both B.PSelscFv-Crry and NB.PSelscFv-Crry constructs inhibit complement activation in a dose-dependent manner (FIG. 21A). Further, to evaluate the binding of B.PselscFv-Crry and NB.PselscFv-Crry to human P-selectin, an ELISA was performed. Briefly, non-blocking and blocking fusion proteins (NB.PselscFv-Crry and B.PselscFv-Crry, respectively) were plated at varying doses in addition to varying doses of C2-Crry as a negative control.

[1] = biological target: T2, P-Selectin-His tag (mouse) (mouse, UniProt Q01102 42-709, limits assumed); assay: SPRi (PlexArray HT), mouse P-Selectin-His printed on chip, fusion protein as analyte, 25 C
T2 construct: also called mouse P-selectin; mouse antigen P-Selectin; not shown: His tag
T2 sequence (looked up): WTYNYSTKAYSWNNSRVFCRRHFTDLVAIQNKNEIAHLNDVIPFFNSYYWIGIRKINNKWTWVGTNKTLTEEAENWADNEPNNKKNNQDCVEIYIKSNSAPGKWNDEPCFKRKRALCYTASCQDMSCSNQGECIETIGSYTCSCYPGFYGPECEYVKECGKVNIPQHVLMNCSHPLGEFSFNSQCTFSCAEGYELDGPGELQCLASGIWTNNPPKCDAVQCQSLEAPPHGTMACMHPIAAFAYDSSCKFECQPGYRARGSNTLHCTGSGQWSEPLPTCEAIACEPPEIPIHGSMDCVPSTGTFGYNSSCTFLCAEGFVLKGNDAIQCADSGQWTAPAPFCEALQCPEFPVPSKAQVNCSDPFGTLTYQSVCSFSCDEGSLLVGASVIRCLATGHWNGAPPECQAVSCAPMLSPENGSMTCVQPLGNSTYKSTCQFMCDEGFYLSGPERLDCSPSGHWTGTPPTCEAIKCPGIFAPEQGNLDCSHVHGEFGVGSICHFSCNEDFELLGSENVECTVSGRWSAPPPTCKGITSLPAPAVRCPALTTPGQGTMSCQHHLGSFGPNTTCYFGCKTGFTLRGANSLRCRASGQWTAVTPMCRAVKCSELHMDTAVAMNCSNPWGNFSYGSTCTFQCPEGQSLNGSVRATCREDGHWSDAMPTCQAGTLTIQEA
Description: FIG. 20A through FIG. 20C depict a representative experimental evaluation of the binding affinity of mouse antigen P-Selectin to B.PselscFv-Crry and NB.PselscFv-Crry. SPR binding assays were performed to measure binding affinity KD and kinetic parameters ka, kd of B.PselscFv-Crry and NB.PselscFv-Crry. The ligand is P-Selectin-His tag (mouse) which was printed onto the chip. The analytes are B.PselscFv-Crry and NB.PselscFv-Crry. After data collection with SPR and kinetics fitting and analysis, the KD, ka, and kd were calculated. FIG. 20A depicts exemplary kinetics fitting curves of P-Selectin to B.PselscFv-Crry. FIG. 20B depicts exemplary kinetics fitting curves of P-Selectin to NB.PselscFv-Crry.
To measure binding affinity, surface plasmon resonance was used with mouse P-selectin as the immobilized ligand and B.PselscFv-Crry (FIG. 20A) and NB.PselscFv-Crry (FIG. 20B) as the analytes. Various concentrations of P-Selectin dissolved in water were manually printed onto the bare gold-coated (thickness 47 nm) PlexArray Nanocapture Sensor Chip (Plexera Bioscience, Seattle, WA, US) at 40% humidity. Each concentration was printed in replicate, and each spot contained 0.2 μL of sample solution. The chip was incubated in 80% humidity at 4° C. for overnight, and rinsed with 10×PBST for 10 min, 1×PBST for 10 min, and deionized water twice for 10 min. The chip was then blocked with 5% (w/v) non-fat milk in water overnight, and washed with 10×PBST for 10 min, 1×PBST for 10 min, and deionized water twice for 10 min before being dried under a stream of nitrogen prior to use. SPRi measurements were performed with PlexAray HT (Plexera Bioscience, Seattle, WA, US). Collimated light (660 nm) passes through the coupling prism, reflects off the SPR-active gold surface, and is received by the CCD camera. Buffers and samples were injected by a non-pulsatile piston pump into the 30 μL flowcell that was mounted on the coupling prim.

B1: NB.PSelscFv-Crry (anti-pselectin 2.3scFv-Crry, non-blocking) (scFv)
chain: QIQLVLSGPELKKPGESVKISCKASGYTFTTYGMSWVKQAPGKGLKWMGWINTSSGVPTYADDFKGRFAFSLETSASTAYLQINNLKNEDTATYFCARGGGYYGAYYFYYWGQGTTLTVSSGGGGSGGGGSGGGGSDIQMTQSPASLSASVGETVTITCRTSDNINSYLAWYLQRQGKSPQLLVYNAKTLTEGVPSRFSGSGSGTQFSLKINSLQPEDFGSYYCQHHYGPPPTFGGGTKLEIKGGGGSGGGGSCPAPSQLPSAKPINLTDESMFPIGTYLLYECLPGYIKRQFSITCKQDSTWTSAEDKCIRKQCKTPSDPENGLVHVHTGIQFGSRINYTCNQGYRLIGSSSAVCVITDQSVDWDTEAPICEWIPCEIPPGIPNGDFFSSTREDFHYGMVVTYRCNTDARGKALFNLVGEPSLYCTSNDGEIGVWSGPPPQCIELNKCTPPPYVENAVMLSENRSLFSLRDIVEFRCHPGFIMKGASSVHCQSLNKWEPELPSCFKGVICRLPQEMSGFQKGLGMKKEYYYGENVTLECEDGYTLEGSSQSQCQSDGSWNPLLAKCVSRSIIEGRHHHHHH
notes: also called Psel.NB; Psel-NB
For B1, the “EC50 (read off the curve)” value (human P-selectin) was ~0.06 µg/mL, the Kd [1] was 630 nM and the koff [1] was 0.00179 s⁻¹. For the same binder, the kon [1] was 2840 M⁻¹ s⁻¹.
